Drawing on US20180155411A1, this text covers in vitro neutralization for three molecules.

The target of assay [1] is VP7 of rotavirus strain 116E (G9P[11]) (human rotavirus), Q99706. Put plainly: cell-based or functional assay.
Assay [2] concerns the target VP4 of rotavirus strain 116E (G9P[11]) (human rotavirus), Q99706. Put plainly: cell-based or functional assay.

Chain of VP7 of rotavirus strain 116E (G9P[11]) (human rotavirus), Q99706 (Q99706 22-377): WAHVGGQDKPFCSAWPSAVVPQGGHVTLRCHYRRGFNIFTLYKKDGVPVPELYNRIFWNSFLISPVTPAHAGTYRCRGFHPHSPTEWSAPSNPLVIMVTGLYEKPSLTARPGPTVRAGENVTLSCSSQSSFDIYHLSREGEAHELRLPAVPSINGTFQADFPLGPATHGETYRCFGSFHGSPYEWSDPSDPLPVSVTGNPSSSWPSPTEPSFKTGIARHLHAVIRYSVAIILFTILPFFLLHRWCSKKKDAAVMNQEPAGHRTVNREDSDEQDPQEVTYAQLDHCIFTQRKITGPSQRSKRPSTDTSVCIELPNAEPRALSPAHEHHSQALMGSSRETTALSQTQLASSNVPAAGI
Chain of VP4 of rotavirus strain 116E (G9P[11]) (human rotavirus), Q99706 (Q99706 22-377): as above

B1: mAb #57 (antibody, V domains shown)
VH: QVQLVESGGGVVQSGRSLRLSCAASGFTFRSYAMHWVRQAPGKGLEWVADLSLDGSHKYADSVRGRFTISSDSSKNTVYLQMNSLRTEDTAIYYCARAAGIMVAGTFLTEFYFDYWGQGTLVTVSS
VL: QSVLTQPPSVSGAPGQRVTISCTGSSSNIGAGYDVHWYQQLPGTAPKLLIYGNIKRPSGVPDRFSGSKSGTSASLAITGLQTEDEADYYCQSYDSSLSAYYVFGTGTRVTVL
Consider B1, for which the in vitro neutralization in assay [1] was above 625 ng/mL.

B2: mAb #49 (antibody, V domains shown)
VH: DVQLVESGGGLVQPGGSVRLSCSASRFTFSNYAMYWVRQAPGKGLEYVSSISSDGGSTYYAESVKGRFTISRDNSKNTLYLQMRSLRAEDAAVYYCVTDVLRLPYSTGWSPGDFIYWGQGTLVTVSS
VL: DIQMTQSPSILYASVGDRVTITCRASQSVSSWLAWYQQKPGKVPKLLIYQASTLENGVPSRFSGSGSGTEFILTISSLQPDDFATYYCQHYNVLWTFGQGTKVEIK
B2: in assay [2], the in vitro neutralization was above 625 ng/mL.

B3: mAb #46 (antibody, V domains shown)
VH: QVQLQESGPGLVKPSETLSLTCTVSGGSINSYYWSWIRQSPGKGLEWIGYVFYSGITKYNPSLQSRVTISLDMGKNQFSLKLTSVNAADAAVYYCARNFPSYTPDWFFDLWGRGTLVTVSS
VL: EIVLTQSPGTLSLSPGERATLSCRASQSVSSDNLAWYQQKPGQPPRLLIYGASHRATGIPDRFSGSGSGTDFTLTISRLEPEDFAVYHCQQYGSSPLTFGGGTKVEIK
In turn, B3 came in with an in vitro neutralization in assay [1] above 625 ng/mL.
